{
  "source": "a protein production outcome set (Wang et al. 2014)",
  "experiment": "label from the status in PepcDB records",
  "data": [
    {"sequence": "MMMLPEACIANILAFTSPADAFSSSEVSSVFRLAGDSDFVWEKFLPSDYKSLISQSTDHHWNISSKKEIYRCLCDSLLIDNARKLFKINKFSGKISYVLSARDISITHSDHASYWSWSNVSDSRFSESAELIITDRLEIEGKIQTRVLSANTRYGAYLIVKVTKGAYGLDLVPAETSIKSKNGQISKSATYLCCLDEKKQQMKRLFYGNREERMAMTVEAVGGDGKRREPKCRDDGWMEIELGEFETREGEDDEVNMTLTEVKGYQLKGGILIDGIEVRPKT", "values": [
      {"measurement": "protein production", "value": "failed"}
    ]},
    {"sequence": "MMMLPEACVANILAFTSPADAFSSSEVSSVFRLAGDSDFVWEKFLPSHYKSLISQSTDHHRIFSSKKEIYRCLCDSLLIDNARKLFKINKFSGKISYILSARDISITYSDHASYCSWSNVSDSRFSESAELITTDRLEIKGKIQTTVLSPNTKYGAYLIMKVTNGAYGLDLVPAETSVKSKNGQNNKNTTYLCCLDEKKQQMKRLFYGNREERMAMTVEAVGGDGKRREPKARDDGWLEIELGEFVTREGEDDEVNMSLTEVKGYQLKGGIVIDGIEVRPIPLK", "values": [
      {"measurement": "protein production", "value": "failed"}
    ]},
    {"sequence": "MMNDYLNFLDGRVSVRRFDPDAVLPNDLIKDMLEHASYAPSGNNFQPWRVVVVKNKNKQEDLKKLAALQPQVATASAVFLLFGDENAYDLTWWQEFHVQKGIITKDEAAARAERIRQYFDLHPEDKETQGLRLDVGLFAMNLMQVVRVYGYDSVPMRGVDFDAIKTYLDMPNGWEPILMLPVGKALQAGNPHVRKSVAEFAEIIE", "values": [
      {"measurement": "protein production", "value": "not failed"}
    ]},
    {"sequence": "MMNNMDSIINYIYEGDYFIVTSHISPDGDNIGSTLSMYYTLKNLGKNVYYVLDDEAPLNLRFLVEGVKIYKSNEFNMKNYSLIALDCGDKMRICVSDEIKNNASKLICIDHHASNDSYGDLNYVDIDASSTCELVYNLLVRFQQIKDINIINEDIATCLYTGLVTDTGNFSYSNVHASSFEMAKNLLVLGAQKNTIIQNIYQSN", "values": [
      {"measurement": "protein production", "value": "failed"}
    ]},
    {"sequence": "MMNNSEGLKSFQQSLADLPQWVSERLLQQINQLTNYEPVIGIMGKTGVGKSSLCNALFAGDISPVSDVAACTREPLRFRLQVGDRYITLMDLPGVGESGARDTEYAALYREQLPRLDLVLWLIKADDRALTVDEHFYHQVIGEVYRHKVLFVISQSDKAEPTSGGGQLSTAQKQNISRKICLLHELFQPVHPVCAVSVRLQWGLKVMAERMIKCLPREATSPVVSQLHPSFRTTVVREQARSDFGETVGAVLDSISAFPLIPAPVRAVIQAVRTTVVSVARAVWDFFF", "values": [
      {"measurement": "protein production", "value": "failed"}
    ]},
    {"sequence": "MMNRLAVRIPTMHSFAWTAADAASRWRLLRISMLLQGFPRNPEPAVRAPDLWRTRVGGGSFGVLFLEAAEVPEALPMQGLSASLVLIAVLAVLAPVATRLLDRWVKVPIVVFEIVLGILFGPSVLGWVQSTPFTDTLADFGLAMLFFVAGNEIDFAAIRGRPIYRASAGWVISLAAGIGAGFVLGPSPEAAVIIGVALCSTALGALLPILRDAGASKSPIGVAATALGAAGEFGPLIAISLFFSGKQLGVASGVLLGFVLLTGVAIYLASQARHTLFHAQVTATLHTSSQFAMRSILLILSSLVVLSMVLGLDMLLGAFAAGVLWKVTIARAPVADRKVIETKIDAVAFGFLVPIFFIDTGIDFDLGALTSSPLTLAMVPLFLSLLLLIRGVPSLLATPPGSSRADKQALLLFGATALPIIVAVTTIGREHGYITSGISSALIGAGMLSVLLFPLLALRLLRRTEAADPKQRTPKA", "values": [
      {"measurement": "protein production", "value": "failed"}
    ]},
    {"sequence": "MMNRNLVVALAGNPNCGKTSLFNELTGSKQHVGNWPGVTVEKKEGKLKFEGREITIVDLPGTYSLGAYSEDEVVARDFILKDKPDVVINVVDACNLERNLYLTTQILETGAKVVLALNMMDEANTRNIDINIEKLQKSIGIPVVPTVATKKQGIKELVKNAIKLGDSESEELYTIDYGSDIQKEVDGIKAAIDEASVTLEYPKAWVSLKLLENDDYIRKYIDNSIKDDEVKHKVSEGIENLTSIIGYEPDAFIVDKRYELISKFVKNSVKKNEVQEESTSDKIDKVLTNKFLGIPIFAIIMFAVYQVSINFGNGTLSDLINDSLGQLGTNIAFTLDGFGVPKIIGAFVRDGVFAGVGSVLGFFPMILIMFFLISLLEDSGYMARAAYVMDRLMSAVGLHGKTAVSLIVGSGCNVAGIMSARTLESKKDRMIAILITPFISCPARLTVYGVFVGAFFAKQKLGIFSLGGIIIFLLYALGIFVAICAGKFFSSKVFEGETSYFVMELPPYRLPTLKGILIHMWEKSGHFLKKAGTIILGVCIIVWILADLPAGVEYGSKDSLLGIIGTFIAPIFKPAGFGSWQAGVALITGFAAKEAVVGTLGTIYGVNEGTQLFHAIHNTFTPLSAISFMIMTLLYVPCVATIGAVKSETNSNKWTVAVIIYTCVIGWVLATIFYQVGRLLGYV", "values": [
      {"measurement": "protein production", "value": "failed"}
    ]},
    {"sequence": "MMPDKKGYIIDIDGVIGKSVTPIPEGVEGVKKLKELGKKIIFVSNNSTRSRRILLERLRSFGLEVGEDEILVATYATARFIAREKPNAKVFTTGEEGLIEELRLAGLEIVDYDEAEYLVVGSNRKINFELMTKALRACLRGIRYIATNPDRIFPAEDGPIPGTGMIIGALYWMTGREPDVVVGKPSEVIMREALDILGLDAKDVAVVGDQIDVDVAAGKAIGAETVLVLTGVTTRENLDQMIERHGLKPDYVFNSLKDMVEALEG", "values": [
      {"measurement": "protein production", "value": "not failed"}
    ]},
    {"sequence": "MMPLKDGDFVLINYTVKVVEDGSERVIDTTLEEVAKKSGIYDPKRVYKEFPVIVGKTSLLGPLEKVLKELDVGERREVEVPPEEAFGEYKKELVVRVPVKRLRRMNIPVRVGEEVEAGGRRGKIIRVTERFAFIDFNHPLAGKKLKIEVEVVGKVDSVEDKARILAARALGLDPDKIHAEVREGGKEITLKLPPEVLGLSDLDALLAKAVSDVREYLSPRKVDVVISIEFPEEAREEAEASDTGEGGEAEGESEQAAEPGGGEERQEG", "values": [
      {"measurement": "protein production", "value": "failed"}
    ]},
    {"sequence": "MMRHERLRFWLAGLAAAATGWLCYAGLARLAGALGVATWIPYPALRRQWLLIGESWQSAEFSGAIADASVFLTALAAVAAYYCARIVYHLSFAPVRQRRARWLIAGWIVGTVAMVALSQSLGWLYGAFPGFARIGWLSAALGFAVLAGAASGFARAWGRLMRARKVPATE", "values": [
      {"measurement": "protein production", "value": "failed"}
    ]},
    {"sequence": "MMRQVRRGATPPPGPGPSAPPYGAGVPQQPSYTDGQGHGGDGYDSGYNTGQVYGGGGGGQGPGRQVRDRPAPDWRRRIKWTAITVVTVLVVTTVGTYFWADSKLNRDVDLSKVIDRPAAGEGTNYLIVGSDSREGMSKDQMKDLHTGYAEGKRTDSMMILHTGDNGSTLISLPRDSDVEIPSFVGSESGKKYPGTGRHTKLNAAYAEDGPELLVRTVEHNTGLRLDHYVEIGFGGFANIVDAVGGVEIDIPQDIKDKKSGADLKKGKQTLDGQEALAFVRTRYALAGSDLDRTKNQQKFLSALASQVATPSTVLNPFRLYPTMGAGLDSLVVDKDMGLFDLASMFWAMKSVSGGEGTSMNMPISGSVGGNLKWDDAKVKKLVEELKNDEKVTVSGNN", "values": [
      {"measurement": "protein production", "value": "failed"}
    ]},
    {"sequence": "MMSFSQIINDFIQSFSSINLGGNFKEIVTNPLTILTLIGVLIILVLLIKAKDIKFDAKMLTTIGIALALTAVLNMLKIYKFPQGGGITLGSMIPIILIAYAYGPLVGMLTGFLFGIISLFIDPYILHPVQVLFDYPIPYMALGVAGFFKNHRISGAVVAIFLKFLAHFISGVVFFGSFAPEGMSPILYSFLVNGSLIGADGLICVVLLGILPVNRLIKAISSKSVTSKYAS", "values": [
      {"measurement": "protein production", "value": "failed"}
    ]},
    {"sequence": "MMSGEHTLKAVRGSFIDVTRTIDNPEEIASALRFIEDGLLLIKQGKVEWFGEWENGKHQIPDTIRVRDYRGKLIVPGFVDTHIHYPQSEMVGAYGEQLLEWLNKHTFPTERRYEDLEYAREMSAFFIKQLLRNGTTTALVFGTVHPQSVDALFEAASHINMRMIAGKVMMDRNAPDYLLDTAESSYHQSKELIERWHKNGRLLYAITPRFAPTSSPEQMAMAQRLKEEYPDTWVHTHLCENKDEIAWVKSLYPDHDGYLDVYHQYGLTGKNCVFAHCVHLEEKEWDRLSETKSSIAFCPTSNLYLGSGLFNLKKAWQKKVKVGMGTDIGAGTTFNMLQTLNEAYKVLQLQGYRLSAYEAFYLATLGGAKSLGLDDLIGNFLPGKEADFVVMEPTATPLQQLRYDNSVSLVDKLFVMMTLGDDRSIYRTYVDGRLVYERN", "values": [
      {"measurement": "protein production", "value": "failed"}
    ]}
  ]
}
